{"source": "IntAct's records for PubMed 15935762", "parents": {"B1": {"name": "Protein pop-1 (Caenorhabditis elegans), Q10666 (parent)", "chain": "MMADEELGDEVKVFRRDEDADDDPMISGETSEQQLADDKKEAVMEAELDGAGRNPSIDVLKSAFPKVEPMSPSFPGLMSHFSPGYSAAALPMFMPLFMNPYAAALRSPSLMFPMGAMSPTFPMFPPSPVYGAAIAAAAAKQHFENMAPLNMRAGHPMNQMGMPPYMHPSSMAPQNVDRRAQGGGKAKKDDHVKKPLNAFMWFMKENRKALLEEIGNNEKQSAELNKELGKRWHDLSKEEQAKYFEMAKKDKETHKERYPEWSARENYAVNKKKTKKRRDKSIPSENNDQKKCRARFGVNNTEMWCKFCKRKKKCEYATDRSGGSDITDSQDGRGTSGAYSSSSESPSPKANAGIALTTQQQQAAMMHTMLMQMRLGSTTGASTHVPSPLASSSAGRSPLDANASDSESDVEEEEDEQIDPTVMQQTHDMLMQESMCTI", "partner": "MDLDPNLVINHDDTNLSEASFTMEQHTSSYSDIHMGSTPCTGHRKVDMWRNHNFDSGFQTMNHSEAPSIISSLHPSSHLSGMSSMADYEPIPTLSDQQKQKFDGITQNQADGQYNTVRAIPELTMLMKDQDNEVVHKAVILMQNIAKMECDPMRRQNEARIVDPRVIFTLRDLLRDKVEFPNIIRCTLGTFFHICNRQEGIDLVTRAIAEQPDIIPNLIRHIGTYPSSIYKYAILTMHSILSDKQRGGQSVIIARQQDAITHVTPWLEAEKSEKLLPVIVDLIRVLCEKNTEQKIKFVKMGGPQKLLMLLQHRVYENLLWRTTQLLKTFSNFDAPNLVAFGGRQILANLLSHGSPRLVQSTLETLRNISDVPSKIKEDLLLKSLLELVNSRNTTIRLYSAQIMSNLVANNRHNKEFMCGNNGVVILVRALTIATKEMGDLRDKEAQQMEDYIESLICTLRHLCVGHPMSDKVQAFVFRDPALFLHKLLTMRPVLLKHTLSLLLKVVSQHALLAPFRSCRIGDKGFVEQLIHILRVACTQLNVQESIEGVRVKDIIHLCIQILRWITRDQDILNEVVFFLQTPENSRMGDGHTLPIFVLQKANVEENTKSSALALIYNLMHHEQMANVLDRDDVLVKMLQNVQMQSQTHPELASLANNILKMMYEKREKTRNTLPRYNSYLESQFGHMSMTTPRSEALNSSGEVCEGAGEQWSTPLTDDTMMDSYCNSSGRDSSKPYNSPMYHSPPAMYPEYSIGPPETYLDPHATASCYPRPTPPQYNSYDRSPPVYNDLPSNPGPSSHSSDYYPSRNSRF"}, "B2": {"name": "Protein pop-1 (Caenorhabditis elegans), Q10666 (parent)", "chain": "B1 chain", "partner": "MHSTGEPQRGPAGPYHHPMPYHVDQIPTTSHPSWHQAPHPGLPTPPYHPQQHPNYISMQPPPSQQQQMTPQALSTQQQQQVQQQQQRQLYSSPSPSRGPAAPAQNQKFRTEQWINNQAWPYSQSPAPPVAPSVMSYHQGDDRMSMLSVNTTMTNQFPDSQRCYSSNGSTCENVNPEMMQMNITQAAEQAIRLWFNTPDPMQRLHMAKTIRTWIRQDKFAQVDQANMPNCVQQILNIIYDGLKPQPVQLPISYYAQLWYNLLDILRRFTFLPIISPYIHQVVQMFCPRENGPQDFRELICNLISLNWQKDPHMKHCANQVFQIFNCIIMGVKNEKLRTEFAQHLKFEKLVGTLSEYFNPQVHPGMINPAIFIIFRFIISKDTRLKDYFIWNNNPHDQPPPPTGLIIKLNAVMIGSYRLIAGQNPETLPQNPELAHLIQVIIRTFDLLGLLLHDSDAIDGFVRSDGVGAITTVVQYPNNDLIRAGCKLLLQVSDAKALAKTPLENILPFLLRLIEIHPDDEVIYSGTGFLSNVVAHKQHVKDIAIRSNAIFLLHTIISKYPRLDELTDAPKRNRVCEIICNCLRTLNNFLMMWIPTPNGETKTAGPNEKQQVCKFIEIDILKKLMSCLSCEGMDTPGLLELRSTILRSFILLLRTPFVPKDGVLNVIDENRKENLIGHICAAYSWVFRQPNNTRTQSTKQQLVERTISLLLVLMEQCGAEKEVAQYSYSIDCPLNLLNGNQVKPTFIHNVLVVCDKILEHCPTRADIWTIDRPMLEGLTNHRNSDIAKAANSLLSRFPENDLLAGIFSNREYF"}}, "data": [{"variants_of": "B1", "conditions": "with bar1_caeel bar-1, Q18825", "values": [{"variant": "MMADEELGEEVKVFRRDEDADDDPMISGETSEQQLADDKKEAVMEAELDGAGRNPSIDVLKSAFPKVEPMSPSFPGLMSHFSPGYSAAALPMFMPLFMNPYAAALRSPSLMFPMGAMSPTFPMFPPSPVYGAAIAAAAAKQHFENMAPLNMRAGHPMNQMGMPPYMHPSSMAPQNVDRRAQGGGKAKKDDHVKKPLNAFMWFMKENRKALLEEIGNNEKQSAELNKELGKRWHDLSKEEQAKYFEMAKKDKETHKERYPEWSARENYAVNKKKTKKRRDKSIPSENNDQKKCRARFGVNNTEMWCKFCKRKKKCEYATDRSGGSDITDSQDGRGTSGAYSSSSESPSPKANAGIALTTQQQQAAMMHTMLMQMRLGSTTGASTHVPSPLASSSAGRSPLDANASDSESDVEEEEDEQIDPTVMQQTHDMLMQESMCTI", "note": "[D9E]", "effect of a mutation on the interaction": "decreasing interaction strength"}]}, {"variants_of": "B2", "conditions": "with ctnh1_caeel sys-1, Q9XVI2", "values": [{"variant": "MMADEELGEEVKVFRRDEDADDDPMISGETSEQQLADDKKEAVMEAELDGAGRNPSIDVLKSAFPKVEPMSPSFPGLMSHFSPGYSAAALPMFMPLFMNPYAAALRSPSLMFPMGAMSPTFPMFPPSPVYGAAIAAAAAKQHFENMAPLNMRAGHPMNQMGMPPYMHPSSMAPQNVDRRAQGGGKAKKDDHVKKPLNAFMWFMKENRKALLEEIGNNEKQSAELNKELGKRWHDLSKEEQAKYFEMAKKDKETHKERYPEWSARENYAVNKKKTKKRRDKSIPSENNDQKKCRARFGVNNTEMWCKFCKRKKKCEYATDRSGGSDITDSQDGRGTSGAYSSSSESPSPKANAGIALTTQQQQAAMMHTMLMQMRLGSTTGASTHVPSPLASSSAGRSPLDANASDSESDVEEEEDEQIDPTVMQQTHDMLMQESMCTI", "note": "[D9E]", "effect of a mutation on the interaction": "disrupting interaction strength"}]}]}
